Test results from publication PMC8096214.
Read-outs that look alike come from different tables or passages of the source.

B1: 6-bp dsRNA with 7-nt 3' overhang (dsRNA)
RNA 1: CCGUGUAAAAAAA
RNA 2: ACACGG

Experiments:
[1] = molecular target: T1, MgR D284A (RNase R, catalytically inactive) (Mycoplasma genitalium, UniProt P47350 1-725, D284A); assay: fluorescence polarization
T1 sequence: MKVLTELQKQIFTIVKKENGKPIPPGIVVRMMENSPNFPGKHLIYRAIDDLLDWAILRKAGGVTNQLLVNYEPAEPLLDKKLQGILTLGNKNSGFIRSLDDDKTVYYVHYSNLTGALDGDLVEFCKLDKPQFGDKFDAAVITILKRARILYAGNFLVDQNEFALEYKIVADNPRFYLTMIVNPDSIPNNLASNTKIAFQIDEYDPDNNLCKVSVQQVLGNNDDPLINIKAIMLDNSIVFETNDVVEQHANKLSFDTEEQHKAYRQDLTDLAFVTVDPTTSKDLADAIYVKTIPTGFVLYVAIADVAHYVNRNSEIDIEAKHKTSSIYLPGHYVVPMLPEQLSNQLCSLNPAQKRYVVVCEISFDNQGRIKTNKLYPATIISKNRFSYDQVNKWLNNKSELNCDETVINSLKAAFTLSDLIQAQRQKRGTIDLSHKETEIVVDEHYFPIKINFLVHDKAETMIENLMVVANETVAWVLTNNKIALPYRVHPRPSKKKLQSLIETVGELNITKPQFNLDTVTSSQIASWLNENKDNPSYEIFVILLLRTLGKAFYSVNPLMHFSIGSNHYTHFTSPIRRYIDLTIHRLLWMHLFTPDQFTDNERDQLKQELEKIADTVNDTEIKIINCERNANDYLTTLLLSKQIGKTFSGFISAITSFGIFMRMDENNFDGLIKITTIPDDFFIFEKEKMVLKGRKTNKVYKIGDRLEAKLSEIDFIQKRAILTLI

[2] = molecular target: T1, MgR D284A (RNase R, catalytically …); assay: crystal structure
[3] = molecular target: T1, MgR D284A (RNase R, catalytically …); assay: crystal structure; remark: listed apart in the source

Row | Binder | Kd [1] | other results
1 | CAAACAAAACCGUGUAAAAACAAA (ssRNA, 2'-O-methyl at G12, G14, A23 ('me' read as suffix, as in the rA15 30-mer)) [24-nt ssRNA, 2'-O-methylated] | 6.63 ± 0.69 nM | –
2 | CAAACAAAACCGUGUAAAAACAAA (ssRNA) [24-nt ssRNA, unmethylated] | 6.62 ± 0.7 nM | –
3 | B1 | – | binding result [2]: binds
4 | AAAA (ssRNA, 2'-O-methyl at A3 ('me' read as suffix)) [4-nt 2'-O-methylated oligo rA (AAAmeA)] | – | binding result [3]: binds
